This test addresses human nascent polypeptide-associated complex (NAC), unlabeled (human, UniProt Q13765 1-215; P20290-2 1-162). Kind of test: other fluorescence titration; competition: 1 nM RNC^BDP and 20 nM NAC^Cy3B pre-incubated, unlabeled NAC or NACmt added; FRET fit to Eq. (6); Assay buffer with 1 mg/mL BSA. Particulars: both partners purified.

We go through 2 molecules from publication PMC7673040 (Nature Communications, 2020).

B1: ribosome-nascent chain complex bearing the first ~90 amino acids of pPL(ss), labelled with BODIPY-FL on the nascent chain (complex)
chain: MDSKGSSQKGSKLALALLLLLLALALCQGVVSTPVCPNGPGNCQVSLRDLFDRAVMVSHYIHDLSSEMFNEFDKRYAQGKGFITMALNSCHTV
modifications: axial-trans-cyclooct-2-en-L-Lysine (TCOK) at an amber codon one residue upstream of the signal sequence, labelled with tetrazine-conjugated BODIPY-FL (BDP)
The Kd is the constant that tells how readily two partners part at equilibrium. B1 registered a Kd of 0.55 nM.

B2: ribosome-nascent chain complex bearing the first ~90 amino acids of pPL(ssmt), labelled with BODIPY-FL on the nascent chain (complex)
chain: MDSKGSSQKGSKLLLRRVVSNLLLCQGVVSTPVCPNGPGNCQVSLRDLFDRAVMVSHYIHDLSSEMFNEFDKRYAQGKGFITMALNSCHTV
modifications: axial-trans-cyclooct-2-en-L-Lysine (TCOK) at an amber codon one residue upstream of the signal sequence, labelled with tetrazine-conjugated BODIPY-FL (BDP)
In the case of B2, the Kd was found to be 0.5 nM. This Kd and that of the molecule before are within 1.5-fold of each other.
